Data reported in patent US20230250134A1 (University of Washington, published 2023).
Changes are numbered by the printed parent chain. Where no end group is shown, it is not given here.

B1: LCB1-12GS-LCB1 (designed binder)
chain: DKEWILQKIYEIMRLLDELGHAEASMRVSDLIYEFMKKGDERLLEEAERLLEEVERGGSGGSGSGGSGDKEWILQKIYEIMRLLDELGHAEASMRVSDLIYEFMKKGDERLLEEAERLLEEVER
B2: LCB1-6GS-LCB1 (designed binder)
chain: DKEWILQKIYEIMRLLDELGHAEASMRVSDLIYEFMKKGDERLLEEAERLLEEVERGGSGGSDKEWILQKIYEIMRLLDELGHAEASMRVSDLIYEFMKKGDERLLEEAERLLEEVER
B3: LCB6-1 (designed binder)
chain: DREQRLVRFLVRLASKFNLSPEQILQLFEVLEELLERGVSEEEIRKQLEEVAKELG
B4: LCB1-3 (designed binder)
chain: DKEWILQKIYEIMRLLDELGHAEASMRVSDLIYEFMKQGDERLLEEAERLLEEVER
B5: LCB6-2 (designed binder)
chain: DREQRLVRFLVRLASKFNLSMEQILILFDVLEELLERGVSEEEIRKILEEVAKEL
B6: LCB3_v1.2-10GS-LCB1_v1.1 (LCB3-GS10-LCB1) (designed binder)
chain: NDDELHMQMTDLVYEALHFAKDEEIQKHVFQLFEKATKAYKNKDRQKLEKVVEELKELLERLLSGGSGGSGGSGDKENILQKIYEIMKTLDQLGHAEASMQVSDLIYEFMKQGDERLLEEAERLLEEVER
B7: AHB2-2 (designed binder)
chain: ELEEQVMHVLDQVSELAHELLHKLTGEELERAAYFNWWATEMMLELIKSDDEREIREIEEEARRILEHLEELARK
B8: Mucin_LCB1_v1.1_Cys (designed binder)
chain: AKAKAKAKAKAKAKAKAKAKGGDKENILQKIYEIMKTLDQLGHAEASMQVSDLIYEFMKQGDERLLEEAERLLEEVERC
B9: LCB4-2 (designed binder)
chain: DREERLKYLEMLLELAVERNDPYLIFDVAIELLRLAEENNDERIYERAKRILEEVE
B10: LCB3_v1.2-PRO-LCB3_v1.2 (3PRO3) (designed binder)
chain: NDDELHMQMTDLVYEALHFAKDEEIQKHVFQLFEKATKAYKNKDRQKLEKVVEELKELLERLLSAGSGGSGGSGGSPVPSTPPTPSPSTPPTPSPSPVPSTPPTPSPSTPPTPSPSPVPSTPPTPSPSTPPTPSPSASGNDDELHMQMTDLVYEALHFAKDEEIQKHVFQLFEKATKAYKNKDRQKLEKVVEELKELLERLLS
B11: LCB3_v1.2-PRO-LCB1_v1.1 (3PRO1) (designed binder)
chain: NDDELHMQMTDLVYEALHFAKDEEIQKHVFQLFEKATKAYKNKDRQKLEKVVEELKELLERLLSAGSGGSGGSGGSPVPSTPPTPSPSTPPTPSPSPVPSTPPTPSPSTPPTPSPSPVPSTPPTPSPSTPPTPSPSASGDKENILQKIYEIMKTLDQLGHAEASMQVSDLIYEFMKQGDERLLEEAERLLEEVER
B12: LCB1_v1.1-GSLCB1_v1.1 (1GS1) (designed binder)
chain: DKENILQKIYEIMKTLDQLGHAEASMQVSDLIYEFMKQGDERLLEEAERLLEEVERGGGGSGGGGSGGGGSGGGGSGGGGSGGGGSGGGGSGGGGSGGGGSGGGGSGGGGSGGGGSGGGGSGGGGSGGGGSDKENILQKIYEIMKTLDQLGHAEASMQVSDLIYEFMKQGDERLLEEAERLLEEVER
B13: LCB7-1 (designed binder)
chain: DDDIRYLIYMAKLRLEQGNPEEAEKVLEMARFLAERLGMEELLKEVRELLRKIEELR
B14: LCB7-2 (designed binder)
chain: B13 chain with I4V, R14L, M29S, L33A, R36L, M39N
B15: LCB2-1 (designed binder)
chain: SDDEDSVRYLLYMAELRYEQGNPEKAKKILEMAEFIAKRNNNEELERLVREVKKRL
B16: LCB2-2 (designed binder)
chain: B15 chain with S6A, R17L, E19K, K25E, I29L, M32L
B17: 36175 (5_LCB1_linker14) (designed binder)
chain: DKEWILQKIYEIMRLLDELGHAEASMRVSDLIYEFMKKGDERLLEEAERLLEEVERGGSGSSGGSGSGSGDKEWILQKIYEIMRLLDELGHAEASMRVSDLIYEFMKKGDERLLEEAERLLEEVERGGSGSSGGSGSGSGDKEWILQKIYEIMRLLDELGHAEASMRVSDLIYEFMKKGDERLLEEAERLLEEVERGGSGSSGGSGSGSGDKEWILQKIYEIMRLLDELGHAEASMRVSDLIYEFMKKGDERLLEEAERLLEEVERGGSGSSGGSGSGSGDKEWILQKIYEIMRLLDELGHAEASMRVSDLIYEFMKKGDERLLEEAERLLEEVER
B18: LCB1_v1.1-GS-LCB3_v1.2 (1GS3) (designed binder)
chain: DKENILQKIYEIMKTLDQLGHAEASMQVSDLIYEFMKQGDERLLEEAERLLEEVERGGGGSGGGGSGGGGSGGGGSGGGGSGGGGSGGGGSGGGGSGGGGSGGGGSGGGGSGGGGSGGGGSGGGGSGGGGSNDDELHMQMTDLVYEALHFAKDEEIQKHVFQLFEKATKAYKNKDRQKLEKVVEELKELLERLLS
B19: LCB3_v1.2-GS3-LCB3_v1.2 (3GS3) (designed binder)
chain: NDDELHMQMTDLVYEALHFAKDEEIQKHVFQLFEKATKAYKNKDRQKLEKVVEELKELLERLLSGGGGSGGGGSGGGGSGGGGSGGGGSGGGGSGGGGSGGGGSGGGGSGGGGSGGGGSGGGGSGGGGSGGGGSGGGGSNDDELHMQMTDLVYEALHFAKDEEIQKHVFQLFEKATKAYKNKDRQKLEKVVEELKELLERLLS
B20: LCB3_v1.2-GS-LCB1_v1.1 (3GS1) (designed binder)
chain: NDDELHMQMTDLVYEALHFAKDEEIQKHVFQLFEKATKAYKNKDRQKLEKVVEELKELLERLLSGGGGSGGGGSGGGGSGGGGSGGGGSGGGGSGGGGSGGGGSGGGGSGGGGSGGGGSGGGGSGGGGSGGGGSGGGGSDKENILQKIYEIMKTLDQLGHAEASMQVSDLIYEFMKQGDERLLEEAERLLEEVER
B21: LCB1_v1.1-PRO-LCB3_v1.2 (1PRO3) (designed binder)
chain: DKENILQKIYEIMKTLDQLGHAEASMQVSDLIYEFMKQGDERLLEEAERLLEEVERAGSGGSGGSGGSPVPSTPPTPSPSTPPTPSPSPVPSTPPTPSPSTPPTPSPSPVPSTPPTPSPSTPPTPSPSASGNDDELHMQMTDLVYEALHFAKDEEIQKHVFQLFEKATKAYKNKDRQKLEKVVEELKELLERLLS
B22: LCB1_v1.1_Cys (designed binder)
chain: DKENILQKIYEIMKTLDQLGHAEASMQVSDLIYEFMKQGDERLLEEAERLLEEVERC
B23: LCB4-1 (designed binder)
chain: QREKRLKQLEMLLEYAIERNDPYLMFDVAVEMLRLAEENNDERIIERAKRILEEYE
B24: LCB1-4 (designed binder)
chain: B4 chain with W4N, R14K, L15T, E18Q, R27Q
notes: also called LCB1_v1.1
B25: LCB1_v1.5 (LCB1_v1.3 with N-link Glycosylation) (designed binder)
chain: B4 chain with W4N, R14K, L15T, D17E, E18Q, R27N
modifications: also: N-linked glycosylation, site not given here
B26: LCB1-5 (designed binder)
chain: B4 chain with W4N, R14K, L15T, E18Q, R27N
B27: LCB1_v1.4 (designed binder)
chain: DKENILQKIYEIMKTLEQLGHAEASMQVSDLIYEFMKQGDENLLEEAEQLLQEVER
B28: LCB1_v1.2 (designed binder)
chain: B27 chain with E17D, Q27Y, N42R, Q49R, Q52E
B29: LCB1_v1.1-PRO-LCB1_v1.1 (1PRO1) (designed binder)
chain: DKENILQKIYEIMKTLDQLGHAEASMQVSDLIYEFMKQGDERLLEEAERLLEEVERAGSGGSGGSGGSPVPSTPPTPSPSTPPTPSPSPVPSTPPTPSPSTPPTPSPSPVPSTPPTPSPSTPPTPSPSASGDKENILQKIYEIMKTLDQLGHAEASMQVSDLIYEFMKQGDERLLEEAERLLEEVER

Target: SARS-COV-2 spike protein on authentic virus, strain 2019 n-COV/USA_WA1/2020 (SARS-CoV-2, UniProt P0DTC2 14-1273)
Assay: cell-based or functional assay

Row | Binder | SARS-CoV-2 Neutralization IC50 [nM]
1 | B1 | 0.01
2 | B2 | 0.01
3 | B3 | 0.01
4 | B4 | 0.01
5 | B5 | 0.01

Target: SARS-COV-2 Spike glycoprotein (SARS-CoV-2, UniProt P0DTC2 14-1208)
Assay: estimated Kd for Spike (avidity), Table 10

Row | Binder | Kd [nM]
6 | B6 | 0.1
7 | B7 | 0.1
8 | B8 | 0.1
9 | B9 | 0.1
10 | B10 | 0.1
11 | B11 | 0.1
12 | B12 | 0.1
13 | B13 | 0.1
14 | B14 | 0.1
15 | B15 | 0.1
16 | B16 | 0.1
17 | B17 | 0.1
18 | B18 | 0.1
19 | B19 | 0.1
20 | B20 | 0.1
21 | B21 | 0.1
22 | B22 | 0.1
23 | B23 | 0.1
24 | B3 | 0.1
25 | B24 | 0.1
26 | B25 | 0.1
27 | B26 | 0.1
28 | B27 | 0.1
29 | B4 | 0.1
30 | B28 | 0.1
31 | B29 | 0.1
32 | B5 | 0.1

Target: T1, SARS-COV-2 Spike glycoprotein receptor binding domain (RBD) (SARS-CoV-2, UniProt P0DTC2 319-541)
Assay: not given

Row | Binder | Kd [nM]
33 | B6 | 0.2
34 | B7 | 0.2
35 | B8 | 0.2
36 | B9 | 0.2
37 | B10 | 0.2
38 | B11 | 0.2
39 | B12 | 0.2
40 | B13 | 0.2
41 | B14 | 0.2
42 | B15 | 0.2
43 | B16 | 0.2
44 | B17 | 0.2
45 | B18 | 0.2
46 | B19 | 0.2
47 | B20 | 0.2
48 | B21 | 0.2
49 | B22 | 0.2
50 | B23 | 0.2
51 | B24 | 0.2
52 | B25 | 0.2
53 | B26 | 0.2
54 | B27 | 0.2
55 | B28 | 0.2
56 | B29 | 0.2

Target: T1, SARS-COV-2 Spike glycoprotein receptor …
Assay: estimated Kd for RBD, Table 10

Row | Binder | Kd [nM]
57 | B1 | 0.2
58 | B2 | 0.2
59 | B3 | 0.2
60 | B4 | 0.2
61 | B5 | 0.2
